Test results published in article PMC4500542 (Cell reports, 2015).
Where two headings read alike, the source gives them in different places.

Key:
[1] = target: EBOV NP° core domain (NP 34-367) (Ebola virus (EBOV, formerly Zaire ebolavirus)) (UniProt P18272); assay: ITC
[2] = target: the molecule itself; assay: SEC-MALS
[3] = target: the molecule itself; assay: SEC-MALS; remark: listed apart in the source

| Molecule | binding result [3] | other results |
| --- | --- | --- |
| EBOV VP35 1-80 peptide (purified, wild type) (from UniProt Q05127 1-80) (domain or fragment) |  | Kd [1]: 1.1 nM |
| MBP-EBOV NP 1-739 (oligomeric, RNA-bound) (natural protein) MDSRPQKIWMAPSLTESDMDYHKILTAGLSVQQGIVRQRVIPVYQVNNLEEICQLIIQAFEAGVDFQESADSFLLMLCLHHAYQGDYKLFLESGAVKYLEGHGFRFEVKKRDGVKRLEELLPAVSSGKNIKRTLAAMPEEETTEANAGQFLSFASLFLPKLVVGEKACLEKVQRQIQVHAEQGLIQYPTAWQSVGHMMVIFRLMRTNFLIKFLLIHQGMHMVAGHDANDAVISNSVAQARFSGLLIVKTVLDHILQKTERGVRLHPLARTAKVKNEVNSFKAALSSLAKHGEYAPFARLLNLSGVNNLEHGLFPQLSAIALGVATAHGSTLAGVNVGEQYQQLREAATEAEKQLQQYAESRELDHLGLDDQEKKILMNFHQKKNEISFQQTNAMVTLRKERLAKLTEAITAASLPKTSGHYDDDDDIPFPGPINDDDNPGHQDDDPTDSQDTTIPDVVVDPDDGSYGEYQSYSENGMNAPDDLVLFDLDEDDEDTKPVPNRSTKGGQQKNSQKGQHIEGRQTQSRPIQNVPGPHRTIHHASAPLTDNDRRNEPSGSTSPRMLTPINEEADPLDDADDETSSLPPLESDDEEQDRDGTSNRTPTVAPPAPVYRDHSEKKELPQDEQQDQDHTQEARNQDSDNTQSEHSFEEMYRHILRSQGPFDAVLYYHMMKDEPVVFSTSDGKEYTYPDSLEEEYPPWLTEKEAMNEENRFVTLDGQQFYWPVMNHKNKFMAILQHHQ |  | binding result [2]: binds |
| MBP-EBOV NP 19-389 (domain or fragment) MDYHKILTAGLSVQQGIVRQRVIPVYQVNNLEEICQLIIQAFEAGVDFQESADSFLLMLCLHHAYQGDYKLFLESGAVKYLEGHGFRFEVKKRDGVKRLEELLPAVSSGKNIKRTLAAMPEEETTEANAGQFLSFASLFLPKLVVGEKACLEKVQRQIQVHAEQGLIQYPTAWQSVGHMMVIFRLMRTNFLIKFLLIHQGMHMVAGHDANDAVISNSVAQARFSGLLIVKTVLDHILQKTERGVRLHPLARTAKVKNEVNSFKAALSSLAKHGEYAPFARLLNLSGVNNLEHGLFPQLSAIALGVATAHGSTLAGVNVGEQYQQLREAATEAEKQLQQYAESRELDHLGLDDQEKKILMNFHQKKNEISFQ | binds |  |
| MBP-EBOV NP 1-450 (oligomeric, RNA-bound) (domain or fragment) MDSRPQKIWMAPSLTESDMDYHKILTAGLSVQQGIVRQRVIPVYQVNNLEEICQLIIQAFEAGVDFQESADSFLLMLCLHHAYQGDYKLFLESGAVKYLEGHGFRFEVKKRDGVKRLEELLPAVSSGKNIKRTLAAMPEEETTEANAGQFLSFASLFLPKLVVGEKACLEKVQRQIQVHAEQGLIQYPTAWQSVGHMMVIFRLMRTNFLIKFLLIHQGMHMVAGHDANDAVISNSVAQARFSGLLIVKTVLDHILQKTERGVRLHPLARTAKVKNEVNSFKAALSSLAKHGEYAPFARLLNLSGVNNLEHGLFPQLSAIALGVATAHGSTLAGVNVGEQYQQLREAATEAEKQLQQYAESRELDHLGLDDQEKKILMNFHQKKNEISFQQTNAMVTLRKERLAKLTEAITAASLPKTSGHYDDDDDIPFPGPINDDDNPGHQDDDPTDSQ | binds |  |
| EBOV NP 1-450 (oligomeric, RNA-bound, purified directly from E. coli) (domain or fragment) MDSRPQKIWMAPSLTESDMDYHKILTAGLSVQQGIVRQRVIPVYQVNNLEEICQLIIQAFEAGVDFQESADSFLLMLCLHHAYQGDYKLFLESGAVKYLEGHGFRFEVKKRDGVKRLEELLPAVSSGKNIKRTLAAMPEEETTEANAGQFLSFASLFLPKLVVGEKACLEKVQRQIQVHAEQGLIQYPTAWQSVGHMMVIFRLMRTNFLIKFLLIHQGMHMVAGHDANDAVISNSVAQARFSGLLIVKTVLDHILQKTERGVRLHPLARTAKVKNEVNSFKAALSSLAKHGEYAPFARLLNLSGVNNLEHGLFPQLSAIALGVATAHGSTLAGVNVGEQYQQLREAATEAEKQLQQYAESRELDHLGLDDQEKKILMNFHQKKNEISFQQTNAMVTLRKERLAKLTEAITAASLPKTSGHYDDDDDIPFPGPINDDDNPGHQDDDPTDSQ | binds |  |
| EBOV NP 1-450 (co-expressed with His-VP35 1-80) (domain or fragment) MDSRPQKIWMAPSLTESDMDYHKILTAGLSVQQGIVRQRVIPVYQVNNLEEICQLIIQAFEAGVDFQESADSFLLMLCLHHAYQGDYKLFLESGAVKYLEGHGFRFEVKKRDGVKRLEELLPAVSSGKNIKRTLAAMPEEETTEANAGQFLSFASLFLPKLVVGEKACLEKVQRQIQVHAEQGLIQYPTAWQSVGHMMVIFRLMRTNFLIKFLLIHQGMHMVAGHDANDAVISNSVAQARFSGLLIVKTVLDHILQKTERGVRLHPLARTAKVKNEVNSFKAALSSLAKHGEYAPFARLLNLSGVNNLEHGLFPQLSAIALGVATAHGSTLAGVNVGEQYQQLREAATEAEKQLQQYAESRELDHLGLDDQEKKILMNFHQKKNEISFQQTNAMVTLRKERLAKLTEAITAASLPKTSGHYDDDDDIPFPGPINDDDNPGHQDDDPTDSQ | binds |  |
| EBOV NP 1-450 released by TEV protease from the cleavable fusion (RNA-free) (domain or fragment) MDSRPQKIWMAPSLTESDMDYHKILTAGLSVQQGIVRQRVIPVYQVNNLEEICQLIIQAFEAGVDFQESADSFLLMLCLHHAYQGDYKLFLESGAVKYLEGHGFRFEVKKRDGVKRLEELLPAVSSGKNIKRTLAAMPEEETTEANAGQFLSFASLFLPKLVVGEKACLEKVQRQIQVHAEQGLIQYPTAWQSVGHMMVIFRLMRTNFLIKFLLIHQGMHMVAGHDANDAVISNSVAQARFSGLLIVKTVLDHILQKTERGVRLHPLARTAKVKNEVNSFKAALSSLAKHGEYAPFARLLNLSGVNNLEHGLFPQLSAIALGVATAHGSTLAGVNVGEQYQQLREAATEAEKQLQQYAESRELDHLGLDDQEKKILMNFHQKKNEISFQQTNAMVTLRKERLAKLTEAITAASLPKTSGHYDDDDDIPFPGPINDDDNPGHQDDDPTDSQ | binds |  |
